Laboratory results as given in doi:10.1101/2025.09.10.675329 (bioRxiv, 2025).

Biological target: CDK5 (full-length), His-tag cleaved (human, UniProt Q00535 1-292)
Assay: SEC

B1: cyclin B1 (amino acids 152-433, C167S, C238S, C350S), co-expressed with CDK5 from a single 438-B vector (domain or fragment)
chain: AVNDVDAEDGADPNLSSEYVKDIYAYLRQLEEEQAVRPKYLLGREVTGNMRAILIDWLVQVQMKFRLLQETMYMTVSIIDRFMQNNSVPKKMLQLVGVTAMFIASKYEEMYPPEIGDFAFVTDNTYTKHQIRQMEMKILRALNFGLGRPLPLHFLRRASKIGEVDVEQHTLAKYLMELTMLDYDMVHFPPSQIAAGAFSLALKILDNGEWTPTLQHYLSYTEESLLPVMQHLAKNVVMVNQGLTKHMTVKNKYATSKHAKISTLPQLNSALVQDLAKAVAKV
- binding result: binds
